# Source: PMC5233613
# Entries after “also recorded” stand apart in the source; their conditions may differ.
# Key:
# LC3B 1-125 [1] = biological target: LC3B 1-125 (UniProt Q9GZQ8); assay: ITC
# LC3B 1-125 [2] = biological target: LC3B 1-125 (UniProt Q9GZQ8); assay: ITC; conditions: reference: unphosphorylated peptide; sites S13
# [3] = reference: wild-type LC3B, sites S17
substance,measurement,setting,value
FUNDC1 10-25 (from UniProt Q8IVP5) LC3B K49A,KD,LC3B 1-125 [1]; [3],weaker; reference 0.59 ± 0.06
FUNDC1 10-25 (from UniProt Q8IVP5) LC3B K49E,KD,LC3B 1-125 [1]; [3],weaker; reference 0.59 ± 0.06
FUNDC1 10-25 (from UniProt Q8IVP5) LC3B K49R,KD,LC3B 1-125 [1]; [3],stronger; reference 0.59 ± 0.06
FUNDC1 10-25 (from UniProt Q8IVP5) pS13 peptide,KD,"LC3B 1-125 [1]; reference: unphosphorylated peptide, sites S13",weaker; reference 1.78 ± 0.16
same,KD,LC3B 1-125 [2],weaker; reference 11.44 ± 1.14; also recorded: weaker; reference 5.62 ± 0.25
FUNDC1 10-25 (from UniProt Q8IVP5) pS17 peptide,KD,"LC3B 1-125 [1]; reference: unphosphorylated peptide, sites S17",stronger; reference 1.78 ± 0.16
FUNDC1 10-25 (from UniProt Q8IVP5) pY18 peptide,KD,"LC3B 1-125 [1]; reference: unphosphorylated peptide, sites Y18",weaker; reference 1.78 ± 0.16
